{"source": "a protein production outcome set (Wang et al. 2014)", "assay": "label from the status in PepcDB records", "data": [{"sequence": "MSDTPYSLKGPARPTASTRNGKGRQDARWAERRREAAIAKLKAELAAQAALIAGQEVALAHSRKIFDRASVAARIGVWECSLPGEQLHWTDVVYDLFDLPRGAALDRSEIIKCYPAESRKALDSLRSRAIAERSGFTLDAEITTFAGHSRWIRITATVECEADVPVRIFGMKQDITEEKILSDRMRYLAEFDPMTGLANRARFQARLAQPDASRPLGALLLIDLDGFKAVNDTFGHVVGDECLKAAAERLAEGCGEADLVARVGGDEFAVLLGSHLDRAAVSGVAREIIEGMGKPVVVRGQSLRLGASVGIAFAGQGAPCDLFAQADTALYAAKAAGRNTFRIFKAEAGGKDRSAAA", "values": [{"measurement": "protein production", "value": "failed"}]}, {"sequence": "MSNAIEINELHWLLAVTQNIDVGIVVLDLNYRVTVWNTFMENRSGVVPYVAIDKTFFELFPEVNRQWLSKKIDNVVTLGTPAFTIWEQRPYLVRFKNYQPITGHEEFMYQNTTLFPLRSTTGAISHVCLVIYDVTDVAANRNQLQAANDKLQQLSGAEQK", "values": [{"measurement": "protein production", "value": "not failed"}]}, {"sequence": "MSNKEGSGGFRKRKHDNFPHNQRREGKDVNSSSPVMLAFKSFQQELDARHDKYERLVKLSRDITVESKRTIFLLHRITSAPDMEDILTESEIKLDGVRQKIFQVAQELSGEDMHQFHRAITTGLQEYVEAVSFQHFIKTRSLISMDEINKQLIFTTEDNGKENKTPSSDAQDKQFGTWRLRVTPVDYLLGVADLTGELMRMCINSVGNGDIDTPFEVSQFLRQVYDGFSFIGNTGPYEVSKKLYTLKQSLAKVENACYALKVRGSEIPKHMLADVFSVKTEMIDQEEGIS", "values": [{"measurement": "protein production", "value": "failed"}]}, {"sequence": "MSLELARRLVEILLALALIQQSLEHLRGFRDERILFGARIVLAVLVLAGVAGPWPLVGLAGLSLLILHRFQGPYNGGSDRMGLLILWCLTLSSLAPTPILAELAFGYLGAQLTLSYFISGWVKVVNPDWRSGRALRDVFQFSAYPVAESLRGFAQRPGLLRAMSWGVMGFELAFPLTLLWPPALMVGLVVAGTFHLANACLFGLNRFFWTWLSAYPAILWLQGRVF", "values": [{"measurement": "protein production", "value": "failed"}]}, {"sequence": "METLLHAKLLLSAEVESLKSGSFDQTYVKKAEHIISGESYQLVQQFVDKFKGKISISGEISTSSVIAALNDFLNVEVFKMGQENEMLFLAIALLQTFIQNNYTGPAARLKAISGLFGKTGIEIGAVNTALSRSLAIMGQPAYEFMDDPLYLVLSLLLLERITGQKSLFDVTPDQEIPLPIISAESTPGLLAVAYWWWARALLTQLSLIPEPSGFQASVASAIYQSADLAYAITKELPESIHEDFKRELCAMYYLENVKCSLAINTEHLCLPSLTRAKKITNFEFVMTGARATRTKYQQKAHAGLIILAKSFTFQNFALRTTSATPETFALESDLLLEKPHFESIADEPLDEQIYSKRQKVDLNEGYEEDKLLPLALRQENIPKLLLDLNPNDQPTLSDYDNIQLLLRLYTIKNTTPAKDPLVEEELTALLSRILYQNGDKNWSIFARSLWERSIIETTKAKTIERGLLQMQSLVEELDLKIKSKLVPSSSEINVASRLSYIHQLPFIPRWQLDATLAEKYMSLGILKSAVEIYERLGMACETALCYAAVGDEKKAEEILLQRINENDSDARAYSILGDIKQDPSLWEKSWEIGKYVNAKNSLAKYYFNPPPKSGAQPNYSATLKHLNDSLRQYPLSFETWYFYGCVGLQCGKMQIAAEAFTRCVSLDPYHALSWSNLSAAYTKMDKLKEAYSCLKRAISCDAQKNWKIWENYMLVAVKLNEWEDVLTACKQLVSIRRDKSGEGSIDLPIIEKLVELLVTSEYPEEPQQLSYFQKSCTEFICNTLPQVITTSARCWRLVARVELWRKRPWAALECHEKAYRAISHNPDLEVEEKVWNDTVDACEDLVAAYESLGEMEGKYGPGSLVCKDWKYKCRSTIKALMSKGKGRWDDSPGWDRLVEARSQI", "values": [{"measurement": "protein production", "value": "failed"}]}, {"sequence": "MFLKKGKKKLYKSGKNWVAALLLSAAVLSFYSAGLNQQTASAATSSQTKAVSYDKITNKQTVNYSAYVNENNRNDGLYSAPALTDVASMTSTGSAKSLNGHLVMVSEIDTTKRASTGVSYQYAKITDNNKSYWVDLRALNDSAQITSTQTVNFQAYINGDTRNDGLYSAPALTTSSSLTPLAYSKSLNKKSVMVSEINTTKRASTGLSYQYAKITYNGKTYWVDARAVFDSITSKQTNLNYYATISETNRNDGIYEEPALTSLASMASTGSVKTFDQDSVEVLEIDTTFRNSNDQKYQYAKVTNGTNTYWVDVRALNTSGFAKITSSKTEDYSAYINEANRKDSIYDNGPALTSPTTLTASALAKTVNGDQVEVIALDTTTRSNGSQYTYLEVKDGSNTYWIDSRAVTAYNFDSITNQQTVNETATINEGGRSDGLYNAPALTSPSSLTSTGSAKDLDGQTVTILEIDTTKRASNGNTYQYAKIAYNGKTYWVDARALNNSTYSGAIMVNFEDENGNQLASPIEYTGKIGSTYQPEPKAITGYSVDLAKTGSIDLTYSSTTQTITYIYEKSTATTTDLINGQGQGIDNDSWTVGSDVQPGWYKITPIGLGTDDNIVLNVEGSDSSDLPLANDISGAWFGSDSSAGEISSYQAYLTAGQVIEMQDNGTDAAAGQGLHLETLSTRPATSLIDPESPIPSSFQDLGAGIYEVGVDIRPGNYQVADILGEGYLYTDDGTVSLDLGTGHGDTSTGTITLTTGELLTSTINGISLEPEN", "values": [{"measurement": "protein production", "value": "failed"}]}, {"sequence": "MGSSSSFSSSSSKLLFRQLFENESSTFTYLLADVSHPDKPALLIDPVDKTVDRDLKLIDELGLKLIYAMNTHVHADHVTGTGLLKTKLPGVKSVISKASGSKADLFLEPGDKVSIGDIYLEVRATPGHTAGCVTYVTGEGADQPQPRMAFTGDAVLIRGCGRTDFQEGSSDQLYESVHSQIFTLPKDTLIYPAHDYKGFEVSTVGEEMQHNPRLTKDKETFKTIMSNLNLSYPKMIDVAVPANMVCGLQDVPSQAN", "values": [{"measurement": "protein production", "value": "not failed"}]}, {"sequence": "MESSFSFGVILAVLASLIIATNTLVAVAVLLLIHKNDGVSLCFTLNLAVADTLIGVAISGLLTDQLSSPSRPTQKTLCSLRMAFVTSSAAASVLTVMLITFDRYLAIKQPFRYLKIMSGFVAGACIAGLWLVSYLIGFLPLGIPMFQQTAYKGQCSFFAVFHPHFVLTLSCVGFFPAMLLFVFFYCDMLKIASMHSQQIRKMEHAGAMAGGYRSPRTPSDFKALRTVSVLIGSFALSWTPFLITGIVQVACQECHLYLVLERYLWLLGVGNSLLNPLIYAYWQKEVRLQLYHMALGVKKVLTSFLLFLSARNCGPERPRESSCHIVTISSSEFDG", "values": [{"measurement": "protein production", "value": "failed"}]}, {"sequence": "MEELSSVGEQVFAAECILSKRLRKGKLEYLVKWRGWSSKHNSWEPEENILDPRLLLAFQKKEHEKEVQNRKRGKRPRGRPRKLTAMSSCSRRSKLKEPDAPSKSKSSSSSSSSTSSSSSSDEEDDSDLDAKRGPRGRETHPVPQKKAQILVAKPELKDPIRKKRGRKPLPPEQKATRRPVSLAKVLKTARKDLGAPASKLPPPLSAPVAGLAALKAHAKEACGGPSAMATPENLASLMKGMASSPGRGGISWQSSIVHYMNRMTQSQAQAASRLALKAQATNKCGLGLDLKVRTQKGELGMSPPGSKIPKAPSGGAVEQKVGNTGGPPHTHGASRVPAGCPGPQPAPTQELSLQVLDLQSVKNGMPGVGLLARHATATKGVPATNPAPGKGTGSGLIGASGATMPTDTSKSEKLASRAVAPPTPASKRDCVKGSATPSGQESRTAPGEARKAATLPEMSAGEESSSSDSDPDSASPPSTGQNPSVSVQTSQDWKPTRSLIEHVFVTDVTANLITVTVKESPTSVGFFNLRHY", "values": [{"measurement": "protein production", "value": "failed"}]}, {"sequence": "MGRKMGISGKLYSFLYLRGFKVWVSYRTQTVLTVLGWVLPVFTYYFTGTALGNRLVNEVGVSNYTAFFTIGLAFQGYVSSVISTISQRLRNEQLYGTIEYYVISRTGTFGFLLYSALWGLTLNTINAIIILAVGFALNIHYNVNIVSAIVIIVLLILSTLGIGMIAGAVTMVTKQGNPISFFFNTFTNLLGGTVFPVTVLPLYVRYISYGIPLTWALEGLREAFLNGAPITDIAPFIIILTIFDIVLLPLGVFSYNHAFKKAREKGTLGEY", "values": [{"measurement": "protein production", "value": "failed"}]}, {"sequence": "VKAAQGLLLSVFHLYPKRKVEIILYNEKWAECFDEEKERLKLVFGPEIIAIHHIGSTSIPNMAAKPIIDMLIEVRSIEAVSQFDEQMKANGYTPKGENGIAGRRYFQKGGNKRTHHVHMYEQGNPAIERHLLFRDYLRAHPNIAKEYAVLKKQLAAQHPDSINQYIQGKDEWIKTAEENAKRWKKGRNNANGSIVCYNSENDENGGFTL", "values": [{"measurement": "protein production", "value": "failed"}]}]}
